Publication PMC7157747

Target: Recombinant Surface Immunogenic Protein (rSIP) of Group B Streptococcus, expressed in E. coli (Group B Streptococcus (GBS), serotype III)
Test: SEC; Size exclusion chromatography by HPLC of purified rSIP; PSS-pro kit as standard curve for molecular mass; 6 M urea used as monomer control

“Recombinant Surface Immunogenic Protein (rSIP) of Group B Streptococcus, expressed in E. coli (natural protein)” showed a stoichiometry N of 2.
